Consider one molecule from paper doi:10.1101/554881, “LRRK2-mediated phosphorylation of HDAC6 regulates HDAC6-cytoplasmic dynein interaction and aggresome formation” (bioRxiv, 2019).

The target in this experiment is T1, GST-tagged human LRRK2 wild type (amino acids 970-2527) (human, UniProt Q5S007 970-2527).
T1 construct: LRRK2, human, amino acids 970-2527; also called GST-LRRK2; GST-LRRK2 (aa 970-2527); source: bought: Invitrogen
Kind of experiment: pull-down; GST-LRRK2 (aa 970-2527; 1 µg) or GST (1 µg) incubated with His-HDAC6 (1 µg) in 250 µl RB100 buffer (25 mM HEPES pH 7.5, 100 mM KOAc, 10 mM MgCl2, 1 mM DTT, 0.05% Triton X-100, 10% glycerol) for 1 h at 4°C; captured on glutathione sepharose; immunoblot. As to conditions: both partners purified. In general terms: Immunoblotting shows a protein as a band on a membrane.

T1 sequence (Q5S007 970-2527): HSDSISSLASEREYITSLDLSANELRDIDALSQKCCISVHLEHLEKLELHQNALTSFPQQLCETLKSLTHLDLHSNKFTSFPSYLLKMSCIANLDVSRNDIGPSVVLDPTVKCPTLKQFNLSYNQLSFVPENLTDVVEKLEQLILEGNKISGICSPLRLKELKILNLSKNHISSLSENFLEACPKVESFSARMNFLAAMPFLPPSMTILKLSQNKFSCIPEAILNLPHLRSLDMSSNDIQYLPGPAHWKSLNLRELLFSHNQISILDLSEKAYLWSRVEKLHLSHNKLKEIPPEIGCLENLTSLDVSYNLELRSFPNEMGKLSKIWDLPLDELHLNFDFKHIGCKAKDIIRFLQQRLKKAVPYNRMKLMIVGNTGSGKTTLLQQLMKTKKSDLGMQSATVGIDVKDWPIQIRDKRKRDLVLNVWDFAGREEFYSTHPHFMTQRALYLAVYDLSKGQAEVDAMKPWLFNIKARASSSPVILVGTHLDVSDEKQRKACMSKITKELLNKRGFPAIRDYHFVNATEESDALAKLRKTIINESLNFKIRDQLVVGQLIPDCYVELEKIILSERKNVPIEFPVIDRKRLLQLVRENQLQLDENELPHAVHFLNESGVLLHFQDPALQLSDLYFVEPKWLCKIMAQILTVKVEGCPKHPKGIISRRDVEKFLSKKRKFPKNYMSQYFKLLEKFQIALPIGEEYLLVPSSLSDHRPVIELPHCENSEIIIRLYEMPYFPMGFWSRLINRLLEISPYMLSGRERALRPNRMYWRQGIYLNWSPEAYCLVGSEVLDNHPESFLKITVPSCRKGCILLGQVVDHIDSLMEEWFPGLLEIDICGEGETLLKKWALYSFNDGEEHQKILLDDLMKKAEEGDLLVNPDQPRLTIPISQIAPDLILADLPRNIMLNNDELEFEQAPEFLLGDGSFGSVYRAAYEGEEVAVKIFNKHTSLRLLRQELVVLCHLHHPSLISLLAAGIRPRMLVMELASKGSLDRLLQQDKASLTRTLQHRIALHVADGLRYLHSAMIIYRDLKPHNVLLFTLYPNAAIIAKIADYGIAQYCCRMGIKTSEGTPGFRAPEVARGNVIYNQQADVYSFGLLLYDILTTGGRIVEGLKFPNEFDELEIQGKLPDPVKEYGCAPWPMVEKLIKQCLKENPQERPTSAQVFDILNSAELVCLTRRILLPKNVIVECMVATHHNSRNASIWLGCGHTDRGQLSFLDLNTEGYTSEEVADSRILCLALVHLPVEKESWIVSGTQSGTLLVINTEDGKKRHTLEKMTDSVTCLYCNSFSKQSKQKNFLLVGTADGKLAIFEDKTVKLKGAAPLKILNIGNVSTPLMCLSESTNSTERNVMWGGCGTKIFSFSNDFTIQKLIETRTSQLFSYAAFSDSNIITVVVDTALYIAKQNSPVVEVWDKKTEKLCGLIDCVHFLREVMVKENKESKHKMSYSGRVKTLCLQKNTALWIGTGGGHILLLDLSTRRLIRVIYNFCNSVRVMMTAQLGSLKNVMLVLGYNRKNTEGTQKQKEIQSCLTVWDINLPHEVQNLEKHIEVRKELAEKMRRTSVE

B1: recombinant His-tagged human HDAC6 protein (enzyme, UniProt Q9UBN7 1-1215, looked up)
chain: MTSTGQDSTTTRQRRSRQNPQSPPQDSSVTSKRNIKKGAVPRSIPNLAEVKKKGKMKKLGQAMEEDLIVGLQGMDLNLEAEALAGTGLVLDEQLNEFHCLWDDSFPEGPERLHAIKEQLIQEGLLDRCVSFQARFAEKEELMLVHSLEYIDLMETTQYMNEGELRVLADTYDSVYLHPNSYSCACLASGSVLRLVDAVLGAEIRNGMAIIRPPGHHAQHSLMDGYCMFNHVAVAARYAQQKHRIRRVLIVDWDVHHGQGTQFTFDQDPSVLYFSIHRYEQGRFWPHLKASNWSTTGFGQGQGYTINVPWNQVGMRDADYIAAFLHVLLPVALEFQPQLVLVAAGFDALQGDPKGEMAATPAGFAQLTHLLMGLAGGKLILSLEGGYNLRALAEGVSASLHTLLGDPCPMLESPGAPCRSAQASVSCALEALEPFWEVLVRSTETVERDNMEEDNVEESEEEGPWEPPVLPILTWPVLQSRTGLVYDQNMMNHCNLWDSHHPEVPQRILRIMCRLEELGLAGRCLTLTPRPATEAELLTCHSAEYVGHLRATEKMKTRELHRESSNFDSIYICPSTFACAQLATGAACRLVEAVLSGEVLNGAAVVRPPGHHAEQDAACGFCFFNSVAVAARHAQTISGHALRILIVDWDVHHGNGTQHMFEDDPSVLYVSLHRYDHGTFFPMGDEGASSQIGRAAGTGFTVNVAWNGPRMGDADYLAAWHRLVLPIAYEFNPELVLVSAGFDAARGDPLGGCQVSPEGYAHLTHLLMGLASGRIILILEGGYNLTSISESMAACTRSLLGDPPPLLTLPRPPLSGALASITETIQVHRRYWRSLRVMKVEDREGPSSSKLVTKKAPQPAKPRLAERMTTREKKVLEAGMGKVTSASFGEESTPGQTNSETAVVALTQDQPSEAATGGATLAQTISEAAIGGAMLGQTTSEEAVGGATPDQTTSEETVGGAILDQTTSEDAVGGATLGQTTSEEAVGGATLAQTTSEAAMEGATLDQTTSEEAPGGTELIQTPLASSTDHQTPPTSPVQGTTPQISPSTLIGSLRTLELGSESQGASESQAPGEENLLGEAAGGQDMADSMLMQGSRGLTDQAIFYAVTPLPWCPHLVAVCPIPAAGLDVTQPCGDCGTIQENWVCLSCYQVYCGRYINGHMLQHHGNSGHPLVLSYIDLSAWCYYCQAYVHHQALLDVKNIAHQNKFGEDMPHPH
notes: Histone deacetylase 6 (HDAC6), human, full length; also called His-HDAC6; full-length human His-HDAC6; source: bought: EMD Millipore
For B1, the binding result is recorded as “binds”.
